Source: patent publication US20140105889A1 (published 2014)
Numbering of substitutions follows the chain as printed. In names and notes the source's numbering stands. Read-outs that look alike come from different tables or passages of the source. Each block holds one binder with its values, some of them ahead of it.

Key:
human FcγRIIa type R = biological target: T1, human FcγRIIa type R (human, UniProt P12318 36-217); experiment: SPR (Biacore), captured antibody, FcγR as analyte, 25 C
T1 construct: also called FcγRIIaR; FcγRIIa(R)
T1 chain: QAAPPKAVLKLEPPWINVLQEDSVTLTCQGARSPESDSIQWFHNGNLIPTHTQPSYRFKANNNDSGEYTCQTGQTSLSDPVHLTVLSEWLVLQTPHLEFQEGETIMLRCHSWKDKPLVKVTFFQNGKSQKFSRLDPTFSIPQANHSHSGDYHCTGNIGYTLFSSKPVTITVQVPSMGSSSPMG

human FcγRIIb [1] = biological target: T2, human FcγRIIb (human, UniProt P31994 43-217, limits assumed); experiment: ratio of this variant's SPR KD for FcγRIIaH to its KD for FcγRIIb
T2 construct: also called FcγIIB; hFcgRIIb
T2 sequence: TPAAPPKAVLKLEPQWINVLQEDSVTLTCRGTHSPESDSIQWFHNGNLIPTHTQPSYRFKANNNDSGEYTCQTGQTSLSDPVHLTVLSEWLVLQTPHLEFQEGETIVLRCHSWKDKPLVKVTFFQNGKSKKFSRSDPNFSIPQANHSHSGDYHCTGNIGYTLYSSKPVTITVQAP

human FcγRIIb [2] = biological target: T2, human FcγRIIb; experiment: ratio of this variant's SPR KD for FcγRIIaR to its KD for FcγRIIb
human FcγRIIb [3] = biological target: T2, human FcγRIIb; experiment: SPR KD for FcγRIIb of parent IL6R-B3/IL6R-L divided by that of this variant
FcγRIIb [4] = biological target: T3, FcγRIIb (human, UniProt P31994 43-217, limits assumed); experiment: SPR (Biacore); ratio against the parent IL6R-B3/IL6R-L
T3 construct: Soluble analyte in Biacore; also called FcgRIIb; FcγIIB
T3 sequence: T2 sequence

FcγRIIb [5] = biological target: T3, FcγRIIb; experiment: SPR (Biacore), antibody captured on chip, FcγR as analyte, method of Example 14
FcγRIIIa type V = biological target: T4, FcγRIIIa type V (human, UniProt P08637 17-208, limits assumed); experiment: as above
T4 construct: Soluble analyte in Biacore; also called FcγRIIIaV; FcγRIIIa(V)
T4 sequence (P08637 other isoform, or with tags, fused parts or gaps limits assumed): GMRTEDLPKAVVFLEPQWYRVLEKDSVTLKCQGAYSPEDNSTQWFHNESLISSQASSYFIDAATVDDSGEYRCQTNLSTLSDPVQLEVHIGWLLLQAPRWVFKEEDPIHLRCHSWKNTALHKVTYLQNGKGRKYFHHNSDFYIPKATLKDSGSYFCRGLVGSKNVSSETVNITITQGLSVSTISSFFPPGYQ

FcγRIIa type H = biological target: T5, FcγRIIa type H (human, UniProt P12318 36-217); experiment: as above
T5 construct: Soluble analyte in Biacore; also called FcγRIIaH; FcγRIIa(H)
T5 sequence: T1 chain with R133H

[6] = biological target: T6, human FcRn (soluble human FcRn complexed with beta2-microglobulin) (human, UniProt P61769 21-119); experiment: Biacore SPR, antibody captured on Protein L, human FcRn analyte, pH 7.0
T6 construct: Soluble human FcRn complexed with beta2-microglobulin; also called hFcRn

[7] = biological target: T7, human FcRn (soluble human FcRn complexed with β2-microglobulin) (human, UniProt P61769 21-119); experiment: SPR (Biacore), Protein L capture, hFcRn analyte, pH 7.0
T7 construct: also called hFcRn

[8] = biological target: T8, human FcRn (soluble human FcRn complexed with beta2-microglobulin) (human, UniProt P61769 21-119); experiment: SPR (Biacore), pH 7.0, 25 C, antibody captured by Protein L, human FcRn as analyte
T8 construct: also called hFcRn

[9] = biological target: T6, human FcRn (soluble human FcRn …); experiment: Biacore SPR, antibody captured on Protein L, human FcRn analyte, pH 7.0; remark: listed apart in the source
[10] = biological target: T6, human FcRn (soluble human FcRn …); experiment: as above; remark: listed apart in the source
[11] = biological target: T7, human FcRn (soluble human FcRn …); experiment: SPR (Biacore), Protein L capture, hFcRn analyte, pH 7.0; remark: listed apart in the source
[12] = biological target: T8, human FcRn (soluble human FcRn …); experiment: SPR (Biacore), pH 7.0, 25 C, antibody captured by Protein L, human FcRn as analyte; remark: listed apart in the source

Kd (human FcγRIIa type R): 1500 nM
KD (IIaH)/KD (IIb) (human FcγRIIb [1]): 33.9
KD (IIaR)/KD (IIb) (human FcγRIIb [2]): 13
B1: IL6R-BF648/IL6R-L (antibody, human IgG1)
heavy: not shown
light: DIQMTQSPSSLSASVGDRVTITCRASQDISSYLNWYQQKPGKAPKLLIYYTSRLHSGVPSRFSGSGSGTDFTFTISSLQPEDIATYYCQQGNTLPYTFGQGTKVEIK
notes: IL6R-B3 with P238D; copies: 2 + 2

Kd (human FcγRIIa type R): 1200 nM
KD (IIaH)/KD (IIb) (human FcγRIIb [1]): 69
KD (IIaR)/KD (IIb) (human FcγRIIb [2]): 22.5
KD(IIb) of the parent polypeptide/KD(IIb) of the altered polypeptide (human FcγRIIb [3]): 5.6
B2: IL6R-BP082/IL6R-L (antibody, human IgG1)
heavy: QVQLQESGPGLVKPSETLSLTCAVSGHSISHDHAWSWVRQPPGEGLEWIGFISYSGITNYNPSLQGRVTISRDNSKNTLYLQMNSLRAEDTAVYYCARSLARTTAMDYWGEGTLVTVSSASTKGPSVFPLAPSSKSTSGGTAALGCLVKDYFPEPVTVSWNSGALTSGVHTFPAVLQSSGLYSLSSVVTVPSSSLGTQTYICNVNHKPSNTKVDKKVEPKSCDKTHTCPPCPAPDLLGGDSVFLFPPKPKDTLMISRTPEVTCVVVDVSHEDPEVKFNWYVDGVEVHNAKTKPREEQYNSTYRVVSVLTVLHQDWLNGKEYKCKVSNKALPKPIEKTISKAKGQPREPQVYTLPPSRDELTKNQVSLTCLVKGFYPSDIAVEWESNGQPENNYKTTPPVLDSDGSFFLYSKLTVDKSRWQQGNVFSCSVMHEALHNHYTQESLSLSP
light: B1 light
notes: copies: 2 + 2

KD(IIb) of the parent polypeptide/KD(IIb) of the altered polypeptide (FcγRIIb [4]): 80.4 fold
Kd (FcγRIIb [5]): 5100 nM
Kd (FcγRIIIa type V): 41000 nM
B3: IL6R-BP209/IL6R-L (antibody, human IgG1)
heavy: B2 heavy with D235E, G239D, H270D, P273G, K328A, K332R
light: B1 light
notes: Anti-human IL-6 receptor IgG1 Fc variant

Kd (FcγRIIa type H): 26000 nM
Kd (FcγRIIIa type V): 65000 nM
B4: IL6R-BP205/IL6R-L (antibody, human IgG1)
heavy: B2 heavy with P273G, Y298D, K332R
light: B1 light
notes: as for B3

Kd (human FcγRIIa type R): 1500 nM
KD (IIaH)/KD (IIb) (human FcγRIIb [1]): 77.5
KD (IIaR)/KD (IIb) (human FcγRIIb [2]): 29.3
KD(IIb) of the parent polypeptide/KD(IIb) of the altered polypeptide (human FcγRIIb [3]): 8
B5: IL6R-BP129/IL6R-L (antibody, human IgG1)
heavy: B2 heavy with Y298D
light: B1 light
notes: copies: 2 + 2

Kd (FcγRIIa type H): 8300 nM
Kd (FcγRIIIa type V): 55000 nM
B6: IL6R-BP208/IL6R-L (antibody, human IgG1)
heavy: B2 heavy with G239D, H270D, P273G, K332R
light: B1 light
notes: as for B3

KD(IIb) of the parent polypeptide/KD(IIb) of the altered polypeptide (FcγRIIb [4]): 17.5 fold
Kd (FcγRIIb [5]): 160 nM
Kd (FcγRIIIa type V): 63000 nM
B7: IL6R-BP213/IL6R-L (antibody, human IgG1)
heavy: B2 heavy with H270D, P273G, K332R
light: B1 light
notes: as for B3

KD(IIb) of the parent polypeptide/KD(IIb) of the altered polypeptide (FcγRIIb [4]): 16.7 fold
Kd (FcγRIIa type H): 2200 nM
B8: IL6R-BP212/IL6R-L (antibody, human IgG1)
heavy: B2 heavy with H270D, P273G, Y298D, K332R
light: B1 light
notes: as for B3

Kd [6]: 65 nM
B9: IgG1-F327 (antibody, name in EU numbering)
heavy: QVQLQESGPGLVKPSETLSLTCAVSGHSISHDHAWSWVRQPPGEGLEWIGFISYSGITNYNPSLQGRVTISRDNSKNTLYLQMNSLRAEDTAVYYCARSLARTTAMDYWGEGTLVTVSSASTKGPSVFPLAPSSKSTSGGTAALGCLVKDYFPEPVTVSWNSGALTSGVHTFPAVLQSSGLYSLSSVVTVPSSSLGTQTYICNVNHKPSNTKVDKKVEPKSCDKTHTCPPCPAPELLGGPKVFLFPPKPKDTLYISREPEVTCVVVDVSHEFPEVKFNWYVDGVEVHNAKTKPREEQYNSTYRVVSVLQVLHADWLNGKEYKCKVSNKALPAPIEKTISKAKGQPREPQVYTLPPSRDELTKNQVSLTCLVKGFYPSDIAVEWESNGQPENNYKTTPPVLDSDGSFFLYSKLTVDKSRWQQGNVFSCSVMHEALHYHYTQKSLSLSP
light: not shown
notes: Fc variant of VH3-IgG1; copies: 2 + 2

Kd [7]: 25 nM
B10: IgG1-F529 (antibody, name in EU numbering)
heavy: B9 heavy with K241S, Y254M, E258T, P259T, F272D, A313Q, M430F
light: not shown
notes: copies: 2 + 2

Kd [8]: 32 nM
B11: IgG1-F1014 (antibody, name in EU numbering)
heavy: B9 heavy with L237R, T252V, E258T, F272D, V310P
light: not shown

Kd [9]: 4.4 nM
B12: IgG1-F398 (antibody, name in EU numbering)
heavy: B9 heavy with E258T, N288E, V310P, M430I
light: not shown
notes: as for B9

Kd [10]: 130 nM
B13: IgG1-F421 (antibody, name in EU numbering)
heavy: B9 heavy with K241S, E258T, F272D, Q309A, A313H, M430A
light: not shown
notes: as for B9

Kd [9]: 87 nM
B14: IgG1-F382 (antibody, name in EU numbering)
heavy: B2 heavy with D235E, D240P, P259V, V307A, T309A, K332A, M430L, N436Y, E441K
light: not shown
notes: as for B9

Kd [10]: 20 nM
B15: IgG1-F434 (antibody, name in EU numbering)
heavy: B9 heavy with K241S, Y254M, E258T, P259V, F272D, N327G, M430Y
light: not shown
notes: as for B9

Kd [7]: 98 nM
B16: IgG1-F492 (antibody, name in EU numbering)
heavy: B2 heavy with D235E, D240P, P259V, V307A, T309A, N327G, K332A, M430L, N436Y, E441K
light: not shown
notes: copies: 2 + 2

Kd [10]: 160 nM
B17: IgG1-F419 (antibody, name in EU numbering)
heavy: B9 heavy with K241S, E258T, F272D, Q309A, A313H, K362H
light: not shown
notes: as for B9

Kd [11]: 62 nM
B18: IgG1-F445 (antibody, name in EU numbering)
heavy: B9 heavy with K241S, Y254M, E258T, P259A, F272D, A313H, M430L
light: not shown
notes: copies: 2 + 2

Kd [12]: 12 nM
B19: IgG1-F941 (antibody, name in EU numbering)
heavy: B9 heavy with K241S, E258T, F272D, N288E, Y438V
light: not shown

Kd [6]: 16 nM
B20: IgG1-F357 (antibody, name in EU numbering)
heavy: B9 heavy with Q309T, V310P, A313Q, N327G, M430I
light: not shown
notes: as for B9

Kd [9]: 12 nM
B21: IgG1-F393 (antibody, name in EU numbering)
heavy: B9 heavy with E258T, F272D, N288E, Q309T, V310P, A313Q
light: not shown
notes: as for B9

Kd [11]: 520 nM
B22: IgG1-F450 (antibody, name in EU numbering)
heavy: B9 heavy with E258T, F272D, Q309P, L311E, A313Q, N327G, M430Y
light: not shown
notes: copies: 2 + 2

Kd [7]: 9.4 nM
B23: IgG1-F527 (antibody, name in EU numbering)
heavy: B9 heavy with K241S, Y254M, E258T, P259V, F272D, V310P, A313Q, N327G, M430Y
light: not shown
notes: copies: 2 + 2

Kd [6]: 12 nM
B24: IgG1-F329 (antibody, name in EU numbering)
heavy: B9 heavy with E258T, N288E, Q309T, V310P, A313Q
light: not shown
notes: as for B9

Kd [11]: 85 nM
B25: IgG1-F462 (antibody, name in EU numbering)
heavy: B2 heavy with D235E, D240P, P259A, V310P, N327G, K332A, M430L, N436Y, E441K
light: not shown
notes: copies: 2 + 2
